Consider five sequences from the Immune Epitope Database (IEDB).

One test has as its target HLA-A*01:01. The test can be described thus: IEDB peptide-MHC binding, purified MHC/direct/fluorescence; filed as Kd, often an IC50 or EC50 that approximates it; ≥ and ≤ were set here for values at or beyond the usual limits of such assays.
The target in test [1] is HLA-A*02:01. The test is described as above.
In the next test the target is HLA-A*03:01. The test is described as above.
Another test addresses HLA-A*26:02. Described as above.
In the next test the target is HLA-A*26:03. Described as above.
A further test deals with HLA-A*68:02. Described as above.
Another test deals with HLA-A*69:01. The description is as above.
The next test addresses HLA-B*07:02. Described as above.
The target in the next test is HLA-B*08:01. The description is as above.
For the next test, the target named is HLA-B*08:02. Described as above. To be noted: source organism: Influenza B virus (B/Beijing/184/93).
A further test addresses HLA-B*15:01. The description is as above.
For a further test, the target named is HLA-B*15:09. The test is described as above.
Test [2] concerns the target HLA-B*15:17. The description is as above. To be noted: source organism: Influenza A virus (A/quail/Hong Kong/FY298/00(H9N2)).
Test [3] has as its target HLA-B*18:01. The description is as above. To be noted: source organism: Influenza A virus (A/quail/Hong Kong/FY298/00(H9N2)).
The next test concerns the target HLA-B*27:05. The test is described as above.
The target in the next test is HLA-B*39:01. The description is as above. The settings on record: source organism: Influenza A virus (A/quail/Hong Kong/FY298/00(H9N2)).
The next test addresses HLA-B*40:01. The test is described as above.
For a further test, the target named is HLA-B*46:01. The test is described as above. To be noted: source organism: Influenza A virus (A/quail/Hong Kong/FY298/00(H9N2)).
For another test, the target named is HLA-B*48:01. The test is described as above. The settings on record: source organism: Influenza A virus (A/quail/Hong Kong/FY298/00(H9N2)).
The target in a further test is HLA-B*57:01. Described as above.
The target in another test is HLA-B*58:01. The description is as above.
The next test addresses HLA-A*11:01. The test is described as above.
The next test concerns the target HLA-A*26:01. Described as above. The settings on record: source organism: Salmonella enterica.
In another test the target is HLA-A*30:01. Described as above. The settings on record: source organism: Salmonella enterica subsp. enterica serovar Typhi.
The next test addresses HLA-A*31:01. Described as above.
Another test addresses HLA-B*44:02. The test is described as above. To be noted: source organism: Salmonella enterica.
Another test deals with HLA-B*73:01. The description is as above. The settings on record: source organism: Salmonella enterica subsp. enterica serovar Typhimurium.
Another test addresses HLA-C*06:02. The test is described as above.
The next test concerns the target HLA-C*07:02. The test is described as above.
The target of another test is HLA-C*08:02. The test is described as above. To be noted: source organism: Yersinia pestis Nepal516.
The next test addresses HLA-A*03:19. The test can be described thus: IEDB peptide-MHC binding, purified MHC/competitive/fluorescence; filed as Kd, often an IC50 or EC50 that approximates it; ≥ and ≤ were set here for values at or beyond the usual limits of such assays.
Another test deals with HLA-A*68:23. Described as above. The settings on record: source organism: Yersinia pestis Nepal516.
The next test deals with HLA-B*15:42. Described as above.
For the next test, the target named is HLA-B*45:06. The test is described as above.
The target of the next test is HLA-B*83:01. The test is described as above.
Another test deals with HLA-A*24:03. The test can be described thus: IEDB peptide-MHC binding, purified MHC/direct/fluorescence; filed as Kd, often an IC50 or EC50 that approximates it; ≥ and ≤ were set here for values at or beyond the usual limits of such assays. The settings on record: source organism: Camelpox virus M-96.
The target of the next test is HLA-B*08:03. Described as above. The settings on record: source organism: Variola virus.
Test [4] has as its target HLA-A*02:01. Description: IEDB peptide-MHC binding, purified MHC/competitive/fluorescence; filed as Kd, often an IC50 or EC50 that approximates it; ≥ and ≤ were set here for values at or beyond the usual limits of such assays. To be noted: source organism: Vaccinia virus WR.
The target of test [5] is HLA-B*15:17. The description is as above. To be noted: source organism: Vaccinia virus WR.
In test [6] the target is HLA-B*18:01. Described as above. To be noted: source organism: Vaccinia virus WR.
Setting [7] is: source organism: Influenza A virus (A/quail/Hong Kong/FY298/00(H9N2)).
The mark [8] stands for this setting: source organism: Influenza B virus (B/Beijing/184/93).
[9] abbreviates: source organism: Salmonella enterica.
Where [10] appears, read: source organism: Salmonella enterica subsp. enterica serovar Typhi.
Where [11] appears, read: source organism: Salmonella enterica subsp. enterica serovar Typhi str. CT18.
Where [12] appears, read: source organism: Yersinia pestis.
The mark [13] stands for this setting: source organism: Yersinia pestis Nepal516.
Where [14] appears, read: source organism: Mycobacterium tuberculosis variant bovis BCG str. Pasteur 1173P2.
[15] abbreviates: source organism: Camelpox virus M-96.

Where only a bound is given, the exact number is not on record here.

For orientation: Kd means the constant that tells how readily two partners part at equilibrium. Low values mean higher affinity, high ones lower affinity. For TKDAERGKL, the Kd with HLA-A*01:01 (setting [7]), in the test with HLA-A*02:01 [1] (setting [7]), with HLA-A*03:01 (setting [7]), with HLA-A*26:02 (setting [8]), in the test with HLA-A*26:03 (setting [8]) and in the test with HLA-A*68:02 (setting [7]) was at least 20 µM each time. In addition, the Kd with HLA-A*69:01 (setting [7]) was at least 20 µM; with HLA-B*07:02 (setting [7]), at least 20 µM; with HLA-B*08:01 (setting [8]) it was at least 20 µM; with HLA-B*08:02 it was at least 20 µM; with HLA-B*15:01 (setting [7]) it was at least 20 µM; with HLA-B*15:09 (setting [8]), at least 10 µM. For the same sequence, the Kd with HLA-B*15:17 [2] is at least 20 µM; with HLA-B*18:01 [3], at least 20 µM; with HLA-B*27:05 (setting [7]) it was at least 20000 nM; in the test with HLA-B*39:01, at least 20 µM; with HLA-B*40:01 (setting [7]), at least 20 µM; with HLA-B*46:01 it was at least 20 µM. Besides, the Kd with HLA-B*48:01, with HLA-B*57:01 (setting [7]) and with HLA-B*58:01 (setting [7]) was at least 20 µM in each case.
In the case of RRRQWASCM, the Kd in the test with HLA-A*01:01 (setting [9]), in the test with HLA-A*02:01 [1] (setting [9]), in the test with HLA-A*03:01 (setting [9]), in the test with HLA-A*11:01 (setting [9]), with HLA-A*26:01 and in the test with HLA-A*30:01 was at least 20 µM each time. Also, the Kd is at least 20 µM in the test with HLA-A*31:01 (setting [9]); at least 20 µM with HLA-A*69:01 (setting [9]); 13.9 µM in the test with HLA-B*08:01 (setting [10]); at least 20 µM with HLA-B*15:01 (setting [9]); 77.4 nM with HLA-B*27:05 (setting [10]); at least 20 µM in the test with HLA-B*40:01 (setting [9]). Moreover, the Kd in the test with HLA-B*44:02 is at least 20 µM; with HLA-B*58:01 (setting [9]) it was at least 20 µM; with HLA-B*73:01, at least 20 µM; in the test with HLA-C*06:02 (setting [11]) it was 24 nM; in the test with HLA-C*07:02 (setting [11]), 45 nM.
For TVYPKTHYV, the dissociation constant (Kd) turned out to be 0.0415 µM with HLA-A*02:01 [1] (setting [12]); 4.18 µM with HLA-A*03:01 (setting [12]); 0.048 µM in the test with HLA-A*11:01 (setting [12]); 0.178 µM in the test with HLA-A*31:01 (setting [12]); 0.0114 µM in the test with HLA-A*69:01 (setting [12]); 2.01 µM with HLA-B*15:01 (setting [12]). The Kd in the test with HLA-B*58:01 (setting [12]) is 3.63 µM; with HLA-C*06:02 (setting [13]), 35 nM; with HLA-C*08:02, at least 20 µM; with HLA-A*03:19 (setting [13]), 201 nM; with HLA-A*68:23, at most 0.1 nM; with HLA-B*15:42 (setting [13]), at least 5 µM. The Kd with HLA-B*45:06 (setting [13]) and with HLA-B*83:01 (setting [13]) was at least 5 µM throughout.
On to RWRWFRAAM, for which the equilibrium dissociation constant (Kd) with HLA-A*03:19 (setting [14]) was 814 nM; with HLA-B*15:42 (setting [14]) it was at least 5 µM; with HLA-B*45:06 (setting [14]) it was at least 5 µM; with HLA-B*83:01 (setting [14]) it was at least 5 µM.
As to FYLFTFTIY, the Kd with HLA-A*01:01 (setting [15]) was at least 20 µM; with HLA-A*11:01 (setting [15]), at least 20 µM; in the test with HLA-A*24:03 it was 1250 nM; in the test with HLA-A*26:02 (source organism: Variola virus) it was at least 20 µM; with HLA-A*26:03 (source organism: Variola virus), at least 20 µM; with HLA-A*31:01 (setting [15]), at least 20 µM. Also, the Kd in the test with HLA-A*68:02 (setting [15]), in the test with HLA-A*69:01 (setting [15]), with HLA-B*07:02 (setting [15]), with HLA-B*08:03, with HLA-B*15:01 (setting [15]) and in the test with HLA-B*15:09 (source organism: Variola virus) was at least 20 µM in each case. Also, the Kd was at least 20 µM with HLA-B*57:01 (setting [15]); at least 20 µM with HLA-B*58:01 (setting [15]); 2000 nM with HLA-C*07:02 (source organism: Vaccinia virus WR); at least 20 µM with HLA-A*02:01 [4]; at least 20 µM with HLA-B*15:17 [5]; 3.89 µM in the test with HLA-B*18:01 [6].
